Assay [1] has as its target T1, full-length human LAG3 on the cell surface (transfected CHO-S or Jurkat cells) (human, UniProt P18627 23-525).
T1 construct: whole, on cells; also called LAG3 on the cell membrane
T1 sequence (looked up): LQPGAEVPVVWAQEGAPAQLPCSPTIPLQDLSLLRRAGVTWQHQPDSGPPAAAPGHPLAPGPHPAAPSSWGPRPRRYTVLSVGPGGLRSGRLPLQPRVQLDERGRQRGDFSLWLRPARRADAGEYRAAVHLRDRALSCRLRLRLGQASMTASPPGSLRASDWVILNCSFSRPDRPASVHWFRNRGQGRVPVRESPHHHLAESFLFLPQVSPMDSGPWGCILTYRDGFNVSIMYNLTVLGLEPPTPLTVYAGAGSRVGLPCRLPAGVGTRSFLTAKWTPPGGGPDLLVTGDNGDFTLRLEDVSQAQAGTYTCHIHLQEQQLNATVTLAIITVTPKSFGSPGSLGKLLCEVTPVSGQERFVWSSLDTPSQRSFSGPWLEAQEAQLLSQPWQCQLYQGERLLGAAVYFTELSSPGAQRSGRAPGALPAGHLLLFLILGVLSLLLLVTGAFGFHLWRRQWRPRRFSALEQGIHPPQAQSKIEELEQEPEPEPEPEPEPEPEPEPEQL
Nature of the assay: flow cytometry on Jurkat cells expressing full-length human LAG3, anti-mouse IgG-FITC. The method, then:
(§1) The transfected Jurkat cells expressing the full-length human LAG3 gene are taken and washed twice with PBS (2% FBS), and the cell concentration is adjusted to 2×10⁵/100 μl. […] The cells are centrifuged at 500×g for 5 min. […] The cells are washed twice with PBS (2% FBS). […] The cells are washed twice with PBS (2% FBS). The cells are suspended in 200 μl PBS and analyzed by flow cytometry.
(In flow cytometry, cells or beads pass a laser one at a time.)

The target of assay [2] is T1, full-length human LAG3 on the cell …. Nature of the assay: flow cytometry on Jurkat cells expressing full-length human LAG3, anti-human IgG Fab-FITC. The method, then:
as §1

The target is the same in assay [3]. Nature of the assay: flow cytometry on CHO-S cells expressing full-length human LAG3 [panel 6A]. On the procedure:
(§2) The binding of the humanized antibodies to LAG3 on the cell surface is determined by a flow cytometry method. The transfected CHO-S or Jurkat cells expressing the full-length human LAG3 gene are taken and washed twice with PBS (2% FBS), and the cell concentration is adjusted to 5×10⁵/100 μl. 1:3 gradient-diluted anti-LAG3 humanized antibody is added, and incubated at 4° C. for 30 min. […] The cells are centrifuged at 500×g for 5 min. The cells are washed twice with PBS (2% FBS). 1:300 diluted goat anti-human IgG Fab-FITC (Thermo Fisher) is added, and incubated at 4° C. for 30 min. The cells are washed twice with PBS (2% FBS). The cells are suspended in 200 μl PBS and analyzed by flow cytometry.

Assay [4] addresses T2, LAG3-Fc recombinant protein (UniProt P18627 23-450).
T2 construct: also called LAG3-Fc (Acro); LAG3-Fc protein; not shown: Fc part
T2 sequence (looked up): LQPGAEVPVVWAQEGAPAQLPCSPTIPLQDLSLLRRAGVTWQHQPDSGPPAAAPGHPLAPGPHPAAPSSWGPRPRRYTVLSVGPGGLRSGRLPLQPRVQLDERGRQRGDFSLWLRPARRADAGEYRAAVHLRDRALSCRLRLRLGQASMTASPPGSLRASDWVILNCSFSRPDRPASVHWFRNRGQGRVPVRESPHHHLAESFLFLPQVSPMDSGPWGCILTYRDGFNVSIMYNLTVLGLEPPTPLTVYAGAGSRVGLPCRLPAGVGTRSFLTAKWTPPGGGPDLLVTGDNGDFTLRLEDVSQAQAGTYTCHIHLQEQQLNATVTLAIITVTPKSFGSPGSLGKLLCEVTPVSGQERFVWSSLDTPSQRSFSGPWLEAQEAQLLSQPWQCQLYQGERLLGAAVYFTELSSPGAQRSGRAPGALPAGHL
The assay is described as follows: ELISA on coated LAG3-Fc, anti-human kappa-HRP. On the procedure: The affinity of the humanized antibody for LAG3 is detected by an ELISA technique. […] The plate is washed 3 times with PBS containing 0.05% Tween 20 (PBST). The plate is blocked with PBS containing 5% skimmed milk for 1 hour at room temperature. […] The plate is washed 3 times with PBST, and 30 μl of 1:4000 diluted horseradish peroxidase-labeled goat anti-human IgG kappa light chain secondary antibody (Millipore) is added thereto, and the plate is allowed to stand at room temperature for 1 hour. The plate is washed 6 times with PBST, and TMB is added thereto for color development. The reaction is stopped with 2M H₂SO₄. The plate is read at 450 nm with a microplate reader.
On the technique in general: ELISA stands for enzyme-linked immunosorbent assay.

Assay [5] deals with T3, Recombinant mouse LAG3-Fc fusion protein (mouse, UniProt Q61790 24-442, limits assumed).
T3 construct: Bought; not shown: Fc part; not described
T3 sequence (looked up): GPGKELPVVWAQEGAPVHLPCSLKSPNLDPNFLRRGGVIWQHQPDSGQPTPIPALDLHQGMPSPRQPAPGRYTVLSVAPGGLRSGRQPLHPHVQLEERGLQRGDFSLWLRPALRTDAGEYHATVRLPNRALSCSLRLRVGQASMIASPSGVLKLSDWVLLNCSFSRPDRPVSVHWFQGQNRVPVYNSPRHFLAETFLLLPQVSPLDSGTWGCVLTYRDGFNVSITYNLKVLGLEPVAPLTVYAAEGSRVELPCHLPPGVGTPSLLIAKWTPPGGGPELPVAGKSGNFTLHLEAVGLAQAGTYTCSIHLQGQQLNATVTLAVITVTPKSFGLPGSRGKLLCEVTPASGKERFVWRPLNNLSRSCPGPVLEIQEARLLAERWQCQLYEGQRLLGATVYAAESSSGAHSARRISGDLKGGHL
Nature of the assay: ELISA, plate coated with mouse LAG3-Fc. On the procedure:
The plate is washed 3 times with PBS containing 0.05% Tween 20 (PBST). The plate is blocked with PBS containing 5% skimmed milk for 1 hour at room temperature. […] The plate is washed 3 times with PBST, and 30 μl of 1:2000 diluted horseradish peroxidase-labeled goat anti-human IgG kappa light chain secondary antibody (millipore) is added thereto, and the plate is allowed to stand at room temperature for 1 hour. The plate is washed 6 times with PBST, and TMB is added thereto for color development. The reaction is stopped with 2M H₂SO₄. The plate is read at 450 nm with a microplate reader.

Assay [6] concerns the target T1, full-length human LAG3 on the cell …. Nature of the assay: flow cytometry on Jurkat cells expressing full-length human LAG3 [panel 6B]. The method, then:
as §2

Assay [7] deals with T2, LAG3-Fc recombinant protein. The assay is described as follows: ELISA blocking assay: antibody mixed with LSECtin, added to coated LAG3-Fc, bound LSECtin detected with anti-His-HRP. On the procedure:
The plate is washed 3 times with PBS containing 0.05% Tween 20 (PBST). […] The plate is washed 6 times with PBST, and TMB is added thereto for color development. The reaction is stopped with 2M H₂SO₄. The plate is read at 450 nm with a microplate reader.

For assay [8] the target is unchanged. The assay is described as follows: flow cytometry blocking assay: antibody premixed with LAG3-Fc (2 µg/ml), binding to MHC II on Raji cells. The method, then: Raji cells are washed twice with PBS (2% FBS), and the cell concentration is adjusted to 2×10⁵/100 μl. […] The mixture is then mixed with the Raji cells and incubated at 4° C. for 60 min. The cells are centrifuged at 500×g for 5 min. The cells are washed twice with PBS (2% FBS). 1:500 diluted goat anti-human IgG-Fc-Alexa Fluor 488 (Jackson) is added, and incubated at 4° C. for 60 min. The cells are washed twice with PBS (2% FBS). The cells are suspended in 200 μl PBS and analyzed by flow cytometry.

Assay [9] deals with T4, Recombinant cynomolgus monkey LAG3-Fc fusion protein (cynomolgus monkey).
T4 construct: Bought; also called cynomolgus monkey LAG3-Fc protein
The assay is described as follows: SPR, cynomolgus monkey LAG3-Fc immobilized on the chip, antibody in flow, 1:1 Langmuir fit. On the procedure: Surface plasmon resonance (SPR) is used to measure the binding affinity and kinetic constants of the anti-LAG3 humanized antibody for the cynomolgus monkey LAG3 protein. […] The data obtained from the experiments are analyzed using an evaluation software, and the curve is fitted with a 1:1 Langmuir binding model.
In general terms: In SPR one partner is held on a chip, and binding of the other changes the refractive index at the surface.

The target of assay [10] is T2, LAG3-Fc recombinant protein. The assay is described as follows: SPR, LAG3-Fc immobilized on the chip, antibody in flow, 1:1 Langmuir fit. The method, then:
Surface plasmon resonance (SPR) is used to measure the binding affinity and kinetic constants of the anti-LAG3 humanized antibody for the LAG3 protein. […] The data obtained from the experiments are analyzed using an evaluation software, and the curve is fitted with a 1:1 Langmuir binding model.

The next assay deals with T5, Tag1-LAG3 protein (UniProt P18627 23-450).
T5 construct: also called LAG3 (Cisbio kit)
Nature of the assay: HTRF blocking assay (Cisbio kit): Tag1-LAG3 with Tag2-FGL1 and antibody. The method, then: The mixture is reacted at room temperature for 15 minutes, and then 10 μL of pre-mixed anti-Tag1-Tb3+ and anti-Tag2-XL665 are added thereto.

B1: anti-LAG3 murine antibody 6H11B10 (antibody, V domains shown)
VH: EVQVVESGGGLVKPGGSLKLSCAASGFTFSDYYMFWVRQTPEERLEWVATINDGGDYTNYPDSVKGRFTISRDNDKNKLYLQMNSLKSEDTAMYYCARESGIYYDYASFGYWGQGTLVTVSS
VL: DIVMTQAAFSNPVTLGTSASISCRSSKSLLYSNGITYLYWYLQKPGQSPQLLIYQMSNLASGVPDRFSSSGSGTDFTLRISRVEAEDVGVYYCAQNLELPWTFGGGTKLEIKRNL
notes: also called m6H11B10; monoclonal hybridoma cell line 6H11B10
As for B1, the binding result in assay [1] is on record as “binds”.

B2: anti-LAG3 chimeric antibody c6H11B10 (antibody, human IgG4 S228P, V domains shown)
VH: EVQVVESGGGLVKPGGSLKLSCAASGFTFSDYYMFWVRQTPEERLEWVATINDGGDYTNYPDSVKGRFTISRDNDKNKLYLQMNSLKSEDTAMYYCARESGIYYDYASFGYWGQGTLVTVSS
VL: DIVMTQAAFSNPVTLGTSASISCRSSKSLLYSNGITYLYWYLQKPGQSPQLLIYQMSNLASGVPDRFSSSGSGTDFTLRISRVEAEDVGVYYCAQNLELPWTFGGGTKLEIKR
notes: Expressed in CHO-S cells; also called chimeric antibody protein c6H11B10
As for B2, the binding result in [2] was “binds”.

B3: anti-LAG3 humanized antibody h6H11B10 (antibody, human IgG4 S228P)
heavy: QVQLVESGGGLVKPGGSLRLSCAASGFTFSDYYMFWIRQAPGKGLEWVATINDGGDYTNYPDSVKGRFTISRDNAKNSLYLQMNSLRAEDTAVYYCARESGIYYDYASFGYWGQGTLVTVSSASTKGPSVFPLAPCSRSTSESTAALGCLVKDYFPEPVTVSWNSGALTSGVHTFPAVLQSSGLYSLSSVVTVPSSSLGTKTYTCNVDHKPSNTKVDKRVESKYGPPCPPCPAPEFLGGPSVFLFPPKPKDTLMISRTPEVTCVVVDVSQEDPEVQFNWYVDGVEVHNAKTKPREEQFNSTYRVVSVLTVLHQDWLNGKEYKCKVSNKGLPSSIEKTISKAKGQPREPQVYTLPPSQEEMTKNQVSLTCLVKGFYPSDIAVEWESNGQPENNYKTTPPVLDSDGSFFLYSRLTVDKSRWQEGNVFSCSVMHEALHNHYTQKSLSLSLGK
light: DIVMTQSPLSLSVTPGEPASISCRSSKSLLYSNGITYLYWYLQKPGQSPQLLIYQMSNLASGVPDRFSGSGSGTDFTLKISRVEAEDVGVYYCAQNLELPWTFGGGTKLEIKRNLAAPSVFIFPPSDEQLKSGTASVVCLLNNFYPREAKVQWKVDNALQSGNSQESVTEQDSKDSTYSLSSTLTLSKADYEKHKVYACEVTHQGLSSPVTKSFNRGEC
notes: Expressed in CHO-S cells
On to B3, for which the half-maximal effective concentration (EC50 (read off the curve)) in assay [3] and in assay [4] was roughly 0.3 µg/mL in each case. Further, in assay [5], the binding result is given as “binds”.

B4: anti-LAG3 humanized antibody h6H11B10#40 (antibody, human IgG4 S228P)
heavy: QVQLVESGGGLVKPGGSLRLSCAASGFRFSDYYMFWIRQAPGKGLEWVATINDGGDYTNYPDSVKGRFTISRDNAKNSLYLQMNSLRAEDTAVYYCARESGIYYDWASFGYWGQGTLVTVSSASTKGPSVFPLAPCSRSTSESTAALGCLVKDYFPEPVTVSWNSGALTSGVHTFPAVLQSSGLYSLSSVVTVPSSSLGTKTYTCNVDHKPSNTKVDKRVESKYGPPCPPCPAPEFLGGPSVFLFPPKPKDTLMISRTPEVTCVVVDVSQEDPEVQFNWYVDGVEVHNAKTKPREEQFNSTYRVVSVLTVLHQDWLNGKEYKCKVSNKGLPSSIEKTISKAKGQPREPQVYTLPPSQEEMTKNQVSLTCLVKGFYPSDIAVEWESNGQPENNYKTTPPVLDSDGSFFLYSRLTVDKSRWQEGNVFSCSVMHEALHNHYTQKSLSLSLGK
light: DIVMTQSPLSLSVTPGEPASISCRSSKSLKYSNGITYLYWYLQKPGQSPQLLIYQMSNLASGVPDRFSGSGSGTDFTLKISRVEAEDVGVYYCAQNLELPWTFGGGTKLEIKRNLAAPSVFIFPPSDEQLKSGTASVVCLLNNFYPREAKVQWKVDNALQSGNSQESVTEQDSKDSTYSLSSTLTLSKADYEKHKVYACEVTHQGLSSPVTKSFNRGEC
notes: Expressed in CHO-S cells
B4: the figures for the “EC50 (read off the curve)” value in assay [6], in assay [3] and in assay [4] were roughly 0.01 µg/mL, roughly 0.4 µg/mL and roughly 0.2 µg/mL, respectively. In addition, the “IC50 (read off the curve)” value in assay [7] is roughly 1 µg/mL; in [8] it was roughly 0.5 µg/mL; with Tag1-LAG3 protein, roughly 2 µg/mL. The Kd in [9] was found to be 1.42 nM; in assay [10], 0.313 nM. Besides, the koff in assay [9] was 3.09e-05 s⁻¹; in assay [10], 1.37e-05 s⁻¹. Also, the figures for the kon in assay [9] and in [10] were 21700 M⁻¹ s⁻¹ and 43500 M⁻¹ s⁻¹, respectively.

The term EC50 (read off the curve) denotes the concentration needed to bring the measured effect to its halfway point. By Kd is commonly meant the constant that tells how readily two partners part at equilibrium. Broadly, the koff is a measure of how fast the partners let go of each other. For orientation: kon means the rate constant with which the complex forms.
